Legend:
[1] = molecular target: T1, AnkB 28–847 (MBD + partial AI-c) (human, UniProt Q01484-2 28-847); assay: ITC; VP-ITC MicroCal, 25 °C; proteins in 50 mM Tris-HCl pH 7.8, 1 mM DTT, 1 mM EDTA with 100 mM or 500 mM NaCl as required; who was titrated is not told; details: both partners purified
T1 construct: ankyrin-B (AnkB), human 220 kDa isoform, residues 28-847: MBD and a short 20-residue linker; numbers count on: human 220 kDa AnkB NM_020977.3; also called extended MBD with a short 20-residue linker; source: E. coli BL21 (DE3), purified (Ni2+-NTA, size exclusion)
T1 sequence (looked up): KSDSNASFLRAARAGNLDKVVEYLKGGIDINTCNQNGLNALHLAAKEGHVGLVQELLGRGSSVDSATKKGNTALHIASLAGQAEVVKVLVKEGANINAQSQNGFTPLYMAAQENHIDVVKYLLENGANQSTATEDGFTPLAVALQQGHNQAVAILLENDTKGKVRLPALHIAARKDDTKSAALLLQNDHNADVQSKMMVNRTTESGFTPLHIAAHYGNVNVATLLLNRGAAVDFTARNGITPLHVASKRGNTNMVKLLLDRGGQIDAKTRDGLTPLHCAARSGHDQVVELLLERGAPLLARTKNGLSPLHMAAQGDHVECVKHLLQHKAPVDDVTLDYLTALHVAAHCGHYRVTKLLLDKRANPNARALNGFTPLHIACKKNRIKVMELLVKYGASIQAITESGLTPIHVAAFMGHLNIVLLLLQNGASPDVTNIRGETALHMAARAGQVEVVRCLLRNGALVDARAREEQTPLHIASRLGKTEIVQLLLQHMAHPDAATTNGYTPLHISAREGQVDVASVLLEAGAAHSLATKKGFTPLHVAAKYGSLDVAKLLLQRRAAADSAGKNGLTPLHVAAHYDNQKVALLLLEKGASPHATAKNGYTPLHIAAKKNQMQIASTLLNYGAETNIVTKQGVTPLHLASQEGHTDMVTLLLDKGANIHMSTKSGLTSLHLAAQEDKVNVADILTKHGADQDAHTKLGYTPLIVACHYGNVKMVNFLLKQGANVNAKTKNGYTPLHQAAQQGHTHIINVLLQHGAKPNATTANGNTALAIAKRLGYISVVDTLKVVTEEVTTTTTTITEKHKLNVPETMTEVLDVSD

[2] = molecular target: T2, AnkG 38–903 (MBD + AI-c + AI-b) (rat, UniProt O70511-1 38-903); assay: as above; details: both partners purified
T2 construct: numbers count on: rat AnkG NM_001033984.1 (MBD-UPA); also called extended AnkG MBD; source: E. coli BL21 (DE3), purified (Ni2+-NTA, size exclusion)
T2 sequence (looked up): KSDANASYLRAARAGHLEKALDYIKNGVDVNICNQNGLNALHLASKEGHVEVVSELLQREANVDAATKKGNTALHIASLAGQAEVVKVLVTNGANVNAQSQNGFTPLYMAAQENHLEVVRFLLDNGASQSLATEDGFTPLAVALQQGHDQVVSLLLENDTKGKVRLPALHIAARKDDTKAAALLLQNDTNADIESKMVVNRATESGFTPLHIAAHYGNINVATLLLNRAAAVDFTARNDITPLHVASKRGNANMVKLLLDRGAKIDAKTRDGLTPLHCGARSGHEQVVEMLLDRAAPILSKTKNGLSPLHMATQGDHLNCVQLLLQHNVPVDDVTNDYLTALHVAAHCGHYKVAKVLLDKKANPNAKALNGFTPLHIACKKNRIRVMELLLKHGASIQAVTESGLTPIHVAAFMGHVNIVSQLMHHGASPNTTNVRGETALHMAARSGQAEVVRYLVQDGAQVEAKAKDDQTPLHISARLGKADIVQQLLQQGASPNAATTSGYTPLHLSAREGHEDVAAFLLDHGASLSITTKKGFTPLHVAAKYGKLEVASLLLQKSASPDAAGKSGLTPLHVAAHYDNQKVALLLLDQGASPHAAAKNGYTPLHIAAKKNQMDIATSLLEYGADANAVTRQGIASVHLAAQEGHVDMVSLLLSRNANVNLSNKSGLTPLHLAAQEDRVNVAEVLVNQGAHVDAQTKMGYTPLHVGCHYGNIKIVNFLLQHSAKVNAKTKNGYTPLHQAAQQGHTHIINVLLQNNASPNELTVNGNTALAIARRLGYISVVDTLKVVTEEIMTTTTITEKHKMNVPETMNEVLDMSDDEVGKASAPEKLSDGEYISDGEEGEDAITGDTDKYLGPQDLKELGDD

binding result [1]: binds
binding result [2]: binds
B1: Nav1.2 (aa 1035–1129) (domain or fragment, mouse, UniProt B1AWN6 1035-1129, looked up)
chain: KALDEIKPLEDLNNKKDSCISNHTTIEIGKDLNYLKDGNGTTSGIGSSVEKYVVDESDYMSFINNPSLTVTVPIAVGESDFENLNTEEFSSESDM
notes: source: E. coli BL21 (DE3), purified (Ni2+-NTA, size exclusion)
